Measurements taken from patent US20250171536A1.

B1: huAb249 IgA2 (antibody, from another filing, V domains shown)
VH: EVQLVQSGAEVKKPGESLKISCKGSGYRFTTSWIGWVRQMPGKGLEWMGIIYPGDSDTRYSPSFQGQVTISADKSISTAYLQWSSLKASDTAMYYCARHGLGYNGYEGAFDIWGQGTLVTVSS
VL: DIQMTQSPSSLSASVGDRVTITCRASQGIGSALAWYQQKPGKAPKLLIYDASNLETGVPSRFSGSGSGTDFTLTISSLQPEDFATYYCQQLNGYPLTFGQGTRLEIK
B2: huAb249 IgG4 (antibody, from another filing, V domains shown)
VH: EVQLVQSGAEVKKPGESLKISCKGSGYRFTTSWIGWVRQMPGKGLEWMGIIYPGDSDTRYSPSFQGQVTISADKSISTAYLQWSSLKASDTAMYYCARHGLGYNGYEGAFDIWGQGTLVTVSS
VL: DIQMTQSPSSLSASVGDRVTITCRASQGIGSALAWYQQKPGKAPKLLIYDASNLETGVPSRFSGSGSGTDFTLTISSLQPEDFATYYCQQLNGYPLTFGQGTRLEIK

Key:
[1] = target: Human CD117 (c-kit), cell-surface expressed (human) (UniProt P10721); assay: cell-based or functional assay
[2] = target: N-terminal domain of human CD117, soluble (HuCD117 1-308) (human) (UniProt P10721); assay: SPR Biacore 4000, captured antibody, soluble CD117 analyte, 1:1 fit
[3] = target: Full length human CD117, soluble (HuCD117 1-524) (human) (UniProt P10721); assay: as above
[4] = target: Cyno CD117, soluble (cynoCD117 1-520) (cynomolgus monkey); assay: as above
Sequence of Cyno CD117, soluble (cynoCD117 1-520) (cynomolgus monkey) (P10721 other isoform, or with tags, fused parts or gaps): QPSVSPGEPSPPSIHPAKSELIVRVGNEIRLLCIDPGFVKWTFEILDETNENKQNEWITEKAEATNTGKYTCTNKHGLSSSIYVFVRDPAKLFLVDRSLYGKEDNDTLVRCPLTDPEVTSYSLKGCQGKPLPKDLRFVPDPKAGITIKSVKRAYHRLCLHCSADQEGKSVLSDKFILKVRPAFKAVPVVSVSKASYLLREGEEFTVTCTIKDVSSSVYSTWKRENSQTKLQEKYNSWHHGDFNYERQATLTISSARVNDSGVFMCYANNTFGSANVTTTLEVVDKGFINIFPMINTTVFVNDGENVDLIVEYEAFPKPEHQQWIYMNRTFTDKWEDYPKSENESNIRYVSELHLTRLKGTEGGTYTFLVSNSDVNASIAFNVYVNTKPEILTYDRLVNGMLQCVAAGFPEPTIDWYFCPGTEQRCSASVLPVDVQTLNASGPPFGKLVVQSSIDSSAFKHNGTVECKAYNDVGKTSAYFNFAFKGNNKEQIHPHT

Sequence of N-terminal domain of human CD117, soluble (HuCD117 1-308) (human) (P10721 26-308): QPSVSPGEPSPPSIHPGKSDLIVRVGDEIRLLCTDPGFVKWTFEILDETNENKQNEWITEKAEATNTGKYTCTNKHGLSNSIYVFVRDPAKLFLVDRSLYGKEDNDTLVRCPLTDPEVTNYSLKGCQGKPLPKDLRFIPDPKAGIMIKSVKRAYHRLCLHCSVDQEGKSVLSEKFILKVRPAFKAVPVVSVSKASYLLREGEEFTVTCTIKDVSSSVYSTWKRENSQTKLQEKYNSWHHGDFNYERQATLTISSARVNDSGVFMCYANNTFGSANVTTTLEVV
Sequence of Human CD117 (c-kit), cell-surface expressed (human) (P10721 26-976 limits assumed): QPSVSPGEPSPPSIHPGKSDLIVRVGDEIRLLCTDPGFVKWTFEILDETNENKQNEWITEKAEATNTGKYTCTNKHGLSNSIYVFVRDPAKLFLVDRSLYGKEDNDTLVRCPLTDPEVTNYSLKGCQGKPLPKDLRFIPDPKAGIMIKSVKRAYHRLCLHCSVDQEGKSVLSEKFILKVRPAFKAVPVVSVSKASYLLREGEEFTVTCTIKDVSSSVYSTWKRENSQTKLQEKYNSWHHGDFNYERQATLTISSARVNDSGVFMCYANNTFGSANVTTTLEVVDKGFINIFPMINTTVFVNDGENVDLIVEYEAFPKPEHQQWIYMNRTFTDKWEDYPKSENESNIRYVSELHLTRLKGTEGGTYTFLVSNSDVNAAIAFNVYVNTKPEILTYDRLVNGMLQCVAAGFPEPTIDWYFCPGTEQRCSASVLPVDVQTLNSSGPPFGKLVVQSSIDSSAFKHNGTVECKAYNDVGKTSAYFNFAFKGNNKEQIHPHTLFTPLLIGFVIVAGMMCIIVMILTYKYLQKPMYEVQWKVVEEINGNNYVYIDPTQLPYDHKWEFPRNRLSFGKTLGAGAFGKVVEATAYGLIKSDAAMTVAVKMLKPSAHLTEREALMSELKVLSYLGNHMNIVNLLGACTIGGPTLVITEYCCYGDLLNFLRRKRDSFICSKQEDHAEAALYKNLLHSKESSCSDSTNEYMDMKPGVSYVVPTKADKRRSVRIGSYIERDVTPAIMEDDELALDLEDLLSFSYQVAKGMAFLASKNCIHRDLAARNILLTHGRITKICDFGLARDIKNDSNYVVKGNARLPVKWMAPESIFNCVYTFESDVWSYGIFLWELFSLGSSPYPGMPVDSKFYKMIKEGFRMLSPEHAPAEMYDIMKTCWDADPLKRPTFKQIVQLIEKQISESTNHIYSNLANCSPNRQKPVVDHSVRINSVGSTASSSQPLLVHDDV
Sequence of Full length human CD117, soluble (HuCD117 1-524) (human) (P10721 26-524): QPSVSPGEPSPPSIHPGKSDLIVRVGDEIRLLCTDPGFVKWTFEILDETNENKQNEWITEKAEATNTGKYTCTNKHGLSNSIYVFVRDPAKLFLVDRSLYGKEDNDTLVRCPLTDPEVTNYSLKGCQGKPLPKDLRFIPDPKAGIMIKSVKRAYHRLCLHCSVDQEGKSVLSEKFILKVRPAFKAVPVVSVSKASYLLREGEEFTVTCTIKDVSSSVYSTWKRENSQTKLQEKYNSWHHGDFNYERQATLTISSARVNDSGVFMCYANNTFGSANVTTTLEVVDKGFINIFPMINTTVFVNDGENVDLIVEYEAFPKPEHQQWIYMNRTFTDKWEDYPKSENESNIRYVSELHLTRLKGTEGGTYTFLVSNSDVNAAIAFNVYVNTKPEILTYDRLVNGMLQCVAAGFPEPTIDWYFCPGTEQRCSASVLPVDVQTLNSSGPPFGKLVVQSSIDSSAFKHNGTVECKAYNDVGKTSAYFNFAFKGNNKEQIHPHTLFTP

Binder | EC50 of trogocytosis (ADCT; DILC18 membrane uptake by neutrophils from CD117-transfected 293 cells) [1] | Normalised uptake (B max) in %, ADCT [1] | Kd [2] | Kd [3] | Kd [4]
B1 | 0.48 nM | 70.6% | 0.08 nM | 0.3 nM | 0.1 nM
B2 |  |  | 0.14 nM | 0.3 nM | 0.3 nM
